From patent US20140148355A1 (UNIVERSITY OF OSLO, published 2014)
Square brackets hold non-standard residues; d marks the D form. Ends that are not written are not given here. Lys(Me) = CNCCCC[C@H](N)C(=O)O

T1: ASHH2 CW domain (13C/15N labelled, cleaved from GST with thrombin) (Arabidopsis thaliana, UniProt Q2LAE1 850-937, limits assumed, 13C and 15N isotope labelled; binds one Zn2+ through Cys868, 871, 893, 904)
T1 construct: domain: CW domain; Free CW domain used for NMR; The structure is deposited as PDB 2l7p (printed '217p')
T1 sequence (looked up): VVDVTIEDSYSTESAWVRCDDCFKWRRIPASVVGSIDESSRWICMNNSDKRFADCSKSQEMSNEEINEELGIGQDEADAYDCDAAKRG

B1: GST-ASHH2-CW (other, Arabidopsis thaliana, UniProt Q2LAE1 850-937, looked up)
chain: VVDVTIEDSYSTESAWVRCDDCFKWRRIPASVVGSIDESSRWICMNNSDKRFADCSKSQEMSNEEINEELGIGQDEADAYDCDAAKRG
notes: domain: CW domain; Expressed in bacteria from pSXG (Eco RI/Bam HI); also called GST-CWASHH2; GST-tagged ASHH2 CW protein; not shown: glutathione-S-transferase (GST) tag encoded by the pSXG vector
B2: synthetic H3 peptide (residues 1-16) ARTK(me1)QTARKSTGGKAY (peptide)
peptide: ART[Lys(Me)]QTARKSTGGKAY
notes: Bought from CASLO and used for NMR at about 1.1:1 with the CW domain; also called histone H3K4me1 peptide (1-15); monomethylated H3K4 peptide

Columns and labels:
[1] = target: histone H3 trimethylated on lysine 4 in Arabidopsis seedling chromatin (nucleosomes) (Arabidopsis, UniProt P59226 2-136); assay: chromatin pull-down from Arabidopsis seedlings, quantified western blot
[2] = target: histone H3 monomethylated on lysine 4 in Arabidopsis seedling chromatin (nucleosomes) (Arabidopsis, UniProt P59226 2-136); assay: as above
[3] = target: histone H3 dimethylated on lysine 4 in Arabidopsis seedling chromatin (nucleosomes) (Arabidopsis, UniProt P59226 2-136); assay: as above
[4] = target: T1, ASHH2 CW domain (13C/15N labelled, …); assay: NMR, 15N-1H HSQC chemical shift changes, peptide:CW about 1.1:1

Binder | bound chromatin relative to input chromatin [1] | bound chromatin relative to input chromatin [2] | bound chromatin relative to input chromatin [3] | binding result [4]
B1 | 2.1 times of input material (2.5%) | 4.4 times of input material (2.5%) | 3.3 times of input material (2.5%) | –
B2 | – | – | – | binds
